Laboratory results: PMC3552686, “Biosynthesis of allene oxides in Physcomitrella patens” (BMC Plant Biology, 2012)

Experiments:
Test in all cases: purified protein
Format in all cases: biochemical, Physcomitrium patens
purified protein [1] = substrate: CC/C=C\C/C=C\C=C\[C@H](CCCCCCCC(=O)O)OO; details: pH 6.5, room temperature, 0.1 nM enzyme, kcat corrected to 100% heme
purified protein [2] = substrate: CC/C=C\C[C@@H](/C=C/C=C\CCCCCCCC(=O)O)OO; details: pH 6.5, room temperature, 0.1 nM enzyme, kcat corrected to 100% heme
purified protein [3] = substrate: CCCCC/C=C\C=C\[C@H](C/C=C\CCCCC(=O)O)OO; details: pH 6.5, room temperature, 0.05 nM enzyme, kcat corrected to 100% heme
purified protein [4] = substrate: CCCCC/C=C\C=C\[C@H](CCCCCCCC(=O)O)OO; details: pH 6.5, room temperature, 0.1 nM enzyme, kcat corrected to 100% heme
purified protein [5] = substrate: CCCCC/C=C\C[C@@H](/C=C/C=C\C/C=C\CCCC(=O)O)OO; details: pH 6.5, room temperature, 0.1 nM enzyme, kcat corrected to 100% heme
purified protein [6] = substrate: CCCCC[C@@H](/C=C/C=C\C/C=C\CCCCC(=O)O)OO; details: pH 6.5, room temperature, 0.05 nM enzyme, kcat corrected to 100% heme
purified protein [7] = substrate: CCCCC[C@@H](/C=C/C=C\CCCCCCCC(=O)O)OO; details: pH 6.5, room temperature, 0.1 nM enzyme, kcat corrected to 100% heme

B1: PpAOS1 (Physcomitrium patens) (protein)
chain: MAVPSSKLPLKAIPGDYGVPYFGAIKDRLDYFWLQGEEQFYRSRMAKYNSTVFRVNMPPGPPISEHPQVICLLDQKSFPILFDVSKVEKKDVFTGTYMPSVSFTSGYRVCSYLDPSEERHTKLKQWCFEVIAMNGRNFLPEFHKSIEESMVLWETSLAKGEKTSVSDEVKQFAFNFLMRAVCHHDPAAPGEYSLGRNGGPYATAWANPQLAPIAGQTGLPHVVEELVLHTVPLPSALVKKNYDALYNFIKNYATEALDRAEAMGIERNDATANLLFFLCFNAYGGFSIFFPLITILISSCGPELMHDLHDEVTKAVAATDGKVTLQSIENMPLVKSVVYEAFRFKPPVPYQYGKAKFDFTIENHENSFEVKKGEMLYGYQPIVMHDPKVFSDPDQFLPRRFMGPDGEKLIKYIFWSNGYETDEPTTANKQCAGKDLVVTMARAFVAEMFLRYKEYTLTMEGAGNATKVFFSDLKK
notes: cDNA from protonema library; N-terminal His6 tag kept (pQE30), E. coli SG13009[pRep4]
Km (purified protein [1]): 39 ± 14 µM | Vmax (purified protein [1]): 0.2 µM/min | kcat (purified protein [1]): 112 s⁻¹ | kcat/Km (purified protein [1]): 2.87e+06 M⁻¹ s⁻¹ | Km (purified protein [2]): 95 ± 27 µM | Vmax (purified protein [2]): 0.9 µM/min | kcat (purified protein [2]): 501 s⁻¹ | kcat/Km (purified protein [2]): 5.27e+06 M⁻¹ s⁻¹ | Km (purified protein [3]): 46 ± 17 µM | Vmax (purified protein [3]): 2.35 µM/min | kcat (purified protein [3]): 2610 s⁻¹ | kcat/Km (purified protein [3]): 5.71e+07 M⁻¹ s⁻¹ | Km (purified protein [4]): 121 ± 61 µM | Vmax (purified protein [4]): 0.98 µM/min | kcat (purified protein [4]): 545 s⁻¹ | kcat/Km (purified protein [4]): 4.5e+06 M⁻¹ s⁻¹ | Km (purified protein [5]): 7 ± 2 µM | Vmax (purified protein [5]): 0.23 µM/min | kcat (purified protein [5]): 128 s⁻¹ | kcat/Km (purified protein [5]): 1.96e+07 M⁻¹ s⁻¹ | Km (purified protein [6]): 107 ± 57 µM | Vmax (purified protein [6]): 2.77 µM/min | kcat (purified protein [6]): 3080 s⁻¹ | kcat/Km (purified protein [6]): 2.88e+07 M⁻¹ s⁻¹ | Km (purified protein [7]): 83 ± 42 µM | Vmax (purified protein [7]): 0.96 µM/min | kcat (purified protein [7]): 531 s⁻¹ | kcat/Km (purified protein [7]): 6.4e+06 M⁻¹ s⁻¹
